{"source": "the DeepSol protein solubility set"}
{"assay": "soluble on expression in E. coli; label from the status in PepcDB or PDB records"}
{"sequence": "MRIPRDTGAAEPGQYRTARTPYAREPMRCLSPAHPCKRVVTMVASQLMKTQIALNWIGALIHMSPSNILTLLPSLSLAKRVSARISKTINATPVLRERVASPRSRDARNTMDTKEFEGGALFATTAGSAANLAELSARFVYGDEVDRWDVDVDDEGDPIELAETRGSTFGRNAKFYFSSSPTIKGASRIDDLFSTSDQRYYYVPCPSCGHMQTLEWERLLYSPDFSTVHYQCAGPDCDVLIEEFHKGDMLARGEWRSHADGDGETVGFHLNALYAPLGWQSWSSLAKQYEKAKKAQDRGDLEPMQVFYNTRLAKVWDSAQEQTKAAVLQARALLEDYVLGTMPTGVLSLVSAVDVQANRLEMMVVGCGEGMERWIVDFQVIMGDPADDRTWLALDEKLKERYRHPCGVSLAILATAVDSGGHHTHEVYQFCRVRRWRNVFAIKGASKPGKPVIAQRPSLVDVTWKGQTERNGAELWMVGTDTAKDWIYNRYHLESGPGALHFPKDLPDDFFAQCVAERKVTRYVKGFKRIEWVKGKAERNEALDLLVYSLAMAHYLGLHRYGEHDW", "soluble on expression in E. coli": "not soluble"}
{"sequence": "MSEISDAEKVRIASDFIKHAPPGEFNEVFNSVRMLLENDDLLKNKCVNAIAQYNVGQFVPVKLDGVAKQTLITPYNDLGNGRFYDEVSKKSFKYDHVRKEAADLQPHPAESGITEQWRQALQTQLDIYIDDHYAKSGTGVVFARNGVFTICIESHQFQPKNFCNGRWRSEWNVPVGDGKSGSQEMKGKILSQVHYYEDGNVQLFSEKEPVLKVNVSADFDKTAKEIIHAISEEETIYQNAVQENYANMSDTTFKALRRQLPVTRAKMDWNKAQTYRIGQEMK", "soluble on expression in E. coli": "soluble"}
{"sequence": "MSLDASQGGEQQSFSWDNATVYFAITDRFHDGNPSNNQSYGRPQEDAWGQNIGTFHGGDLQGLTDKLNEGYFTELGINAIWITAPYEQVHGWVGGGSDGDFAHYAYHGYYALDYTMIDQNMGTVEDMREFVHTAHEQGIRVVLDVVMNHPGYNTIKDMHEYGFGNPGVSEHWTPGQGQNWHDVHQQINYEDAGAWRHWWGPWIRAGIAGYESCGNSEITMCLAGLPDFRTELTHSVGLPPLLETKWNQERQGGYEDWIVPAANDLRRDLGVAPADYIVKWLSAWVEEFGIDGFRVDTAKHVELSRWQQLKDAANEALWKWREENPEAPGANWTDDFWMVGEVWGHGVGRSEYFDHGFDSVINFTFQGEHGNGPAYRLDTMESTFSRYANAINTDSTFNVLSYLSQHDTQLYPRERLIDGGTYLMLLPGGVQVFYGDETARPFGPTGSDPHQGTRSSMNWDSVNEEVLHHWQKMGQFRSNHLAVGAGEHRQIAASPYTFSRTYVEGDVDDRVVVVVGASGETTIDVSSVFSDGQQVRDFYTGNVTVVENGHVTFPAHRNGVILIERAGDEGHHHHHH", "soluble on expression in E. coli": "soluble"}
{"sequence": "MGSDKIHHHHHHMAERLGISIRSIYRDIDSLRAQGVRIDASAGLGFQLKEDILLPPVTFNENEAEALFLALEWLKDVPDQAMKSAAVSIYSKLYAVLPEHRKYLIDDMTLGVTHYWHPVDEALVEQVRLAIRKQVKIKVDYCDEHKRISQRSLWPFALGYLHDKVVLAAWCELRQAFRHFRIDRIHDLQMSEEIYPEFKKHLFQRWWKQEMQRTTDKN", "soluble on expression in E. coli": "not soluble"}
{"sequence": "GKTMKMRKFTIADASLERSPGQEADISVGNLVDERHGGPITIGYGRYAPGQSLTETMAVDDVMIVLEGRLSVSTDGETVTAGPGEIVYMPKGETVTIRSHEEGALTAYVTYPHWRPAHA", "soluble on expression in E. coli": "soluble"}
{"sequence": "ARIGLYEKALPQNLTWAERLTWAKKLGFDFLEMSIDESDERLARLAWTPSQLQEFSQLMVKEDFFIHSLCLSGHRRFPLGSLNKETREKGRKILSQAIRLAHQLNIRVIQIAGYDVFYEEKTAETREFFLQGLKKGVEEAAQYGVILAVEIMDDPFMNSIQKFLEIKEQIPSPFLHVYPDLGNLSAWPENNPAVELEKGIAEIAAIHLKDTFAVTDTFEGKFREVTFGEGCVDFTGLLKTLKRLNYSGPFLIEMWNETDLNFQEKIQAAQQYLYPKLAEVGYY", "soluble on expression in E. coli": "not soluble"}
{"sequence": "MTNPNIPDDLLAKIAKKMADKCWWYLGPMLKSGPRGRDIVYRPDVLKNANIFSMCDDPDDFYAAGHDPNDINSEGRYRPFFKWCLQAGNPTAIYHEGLRLVTHESDIQGAILHLERIAPRNAAATLACAILYICAGNAHMGGVYLRLFGSNHYALESEDARDI", "soluble on expression in E. coli": "soluble"}
{"sequence": "MGVLDHVSEYFDCSHGSSKRHKSLQTVDVRVLIDCEGCERKVRRALEGMRGIRDVTIEPNAQKVTVVGYVEPNKVVARIIHRTGKRAELYPFVPYDVVAHPYASGVYDNRAPTGYVRNTEYDPHVSRLARASSTEVRYTTAFSDENASACVVM", "soluble on expression in E. coli": "soluble"}
{"sequence": "GSHMASMTGGQQMGRGSWKRAFLAFGSNIGDRFKHIQMALQLLSREKTVKLRNISSIFESEPMYFKDQTPFMNGCVEVETLLTPSELLKLCKKIEYEELQRVKHFDNGPRTIDLDIVMFLNSAGEDIIVNEPDLNIPHPRMLERTFVLEPLCELISPVHLHPVTAEPIVDHLKQLYDKQHDEDTLWKLVPLPYRSGVEPRFLKFKTATKLDEFTGETNRITVSPTYIMAIFNATPDSFSDGGEHFADIESQLNDIIKLCKDALYLHESVIIDVGGCSTRPNSIQASEEEEIRRSIPLIKAIRESTELPQDKVILSIDTYRSNVAKEAIKVGVDIINDISGGLFDSNMFAVIAENPEICYILSHTRGDISTMNRLAHYENFALGDSIQQEFVHNTDIQQLDDLKDKTVLIRNVGQEIGERYIKAIDNGVKRWQILIDPGLGFAKTWKQNLQIIRHIPILKNYSFTMNSNNSQVYVNLRNMPVLLGPSRKKFIGHITKDVDAKQRDFATGAVVASCIGFGSDMVRVHDVKNCSKSIKLADAIYKGLE", "soluble on expression in E. coli": "soluble"}
{"sequence": "MRTLLITGPGGSGRTTVAAATALRASRTGTRTLVLSADRTDTLGAALGVPTGGAPVEAAPGLTAWRPDAADRFRADLTAFQDRAATALDFLGAARLDAEELTPLPGAEELALLRALRDAALSEAYDLLVVDLPPAPQALALLALPEELRRYLRRLLPPERQAARALRPVLGRLAGVPMPADWLYETAARWDVELAAVEAVVEDRATTVRLVAEPGPAGADAVRAAATGFALRAVRIDTLIANRLLPEEADDAWSAGLAAQQRKFLEEWRGEYRLHELPHLGHDPRGADDLAALAVPGVNDAPGPVEWSVADRLADDGVLVWHIPLPGAIRDELDLLRRGDELVVTAGQFRRIVPLPSALRRCTVAGAALREGELRIRFAPDPDLWPRERLEHHHHHH", "soluble on expression in E. coli": "soluble"}
{"sequence": "VILIIVAYLVGILIRKRNDSRIAQLEERKQKLFDLPINEEIEEVKNLHLIGQSQTTFREWNQKWIDISTNSFADIENHIFEAENMNDNFHFFKASAEINNIESQLDLVEEDIKSIREALSRLKEQEEKNSARVKHALDLYEELQNSIEGNSDNFGSTLDEITKQLKNIESEFAEFVTLNSSGDPVEASSILDRAEEHTIALGQITEKIPAIVAKLEDDFPDQLDDLESGYRKLIEQNYHFPEKNIERHFQEIREAIRSNSSELVSLDLDRAEEKNADIQEKIDNLYSIFEREIASYKVVMRQKKILPDYLKHAKENNKKLQEELERLMLTYIFDETYEADVRSFTSDISSVETAVLPTLENFDNQVKPFSELEKIFEKSLNTLSAVENGQVEVFENLRAIEKNEAKARDELDVYIDKLHVIKRYMEKRNLPGIPESFLSVFFSTSAQIEALMDELSRGRINIDAVMRLTKTSKNAIEHLEETAYLVVQNATLTEQLLQYSNRYRSFEPAVQSSFEHALKLFEVDHDYDASLEEISYALETVEPGVTDRFVSSYEK", "soluble on expression in E. coli": "not soluble"}
{"sequence": "MIDELATKANVALKAMEDFTQEQVDHIVHQMAMAALDQHMPLAKMAVEETGRGIYEDKAIKNMYASEYIWNNIKHDKTVGVINKDEQTGLMEIAEPVGVVCGVTPTTNPTSTTIFKSLIALKTRNPIVFAFHPSAQKCSAEAARIVRDAAIAAGAPENCIQWIEQPSIDATSALMNHPGIAIVLATGGAGMVKSAYSTGKPALGVGPGNVPAYIEKTAKVKRAVNDLIVSKSFDNGMICASE", "soluble on expression in E. coli": "not soluble"}
{"sequence": "SLHRILLVDDEKDVGKIVSRLLAGDNYEIEQVTTGKEAMKRVLEESLPDIILLDINLPDIDGMDMLRDMKDAVRGTPIVMMTAYGSIETAVRSIKMGAMDFVQKPFNHYDFKRFINGVISARNIAGNDHCGIVGSSPQMKKVFRLVDKFALSDITILLQGESGTGKELFARAIHQKSKRRSGPFVPLDCAALSETLIESELFGHEKGAFTGATERKIGKFERAHGGTLFIDEVENLSSSNQAKLLRAVEEKQIERVGGTKAIKVDVRIVAASNIPLTEIINNGVFRKDLFYRFSQMTIAIPSLRDRVKDVDVLIRHFLAAYSEEFGNAANISEEALLLLNAYPWPGNVRELENVVKSAVILADGDILAKHLPEYIRKGSEG", "soluble on expression in E. coli": "soluble"}
{"sequence": "MSLSTSSKVVRLDVSRSQQEAVKGVKLPALLIKLRDRCGEHNRKLLDRLFEQVDDSFFDLADKSATNSEQALFFDAMREIRLKKERIAALFMQYYNRDFQFLEVQKPGMLKANFDPQNLTLVQEDKLEEQVAIDNMVNRFKSEIGRDLEHLTIRLDSLLFDVSVEEENNPLGPLRMVTNFVTACAELELGIRAKLVFFKLFEKHVLTQNKAVLEAANKFLAEQGVMPDLSASRSVRRTGVNLPHASGSVIDQNTGAVGDYNEGGWDPQIDPLQYMRQFSDAQMAGAAGAAVNLPVVQQTALLNLLSRLQTTNKAPATALSDNGLINFMGLMERAVLSKEGQPRASVGRLDQDVMNLVTMLFEFILDDRQLPAAIRAVIARLQIPILKVALLDRTFFNQGGHSARRLLNEMATASIGWTEKAPGEPDAFLAKLEEVVQRLVTEFDNDITIFDEVLEDFIRFRESDKKRRHLLEQRTRDAEVGRAKSDAAKKVVQDVLNDMLAGKNIPALVMEVLKEGWSNYMVLLQLKSGREHPDWLQAQSVAARLIQGCDPDDTSGEAPEVAAVEKLMEELRVGLQQTAYKPFELDKTLRQLQKVLSETTQQRLAKEVTLDDEGHHHHHH", "soluble on expression in E. coli": "soluble"}
{"sequence": "MSLERAVPLAVPLGQTEVFQALQRLHMTIFSQSVSPCGKFLAAGNNYGQIAIFSLSSALSSEAKEESKKPVVTFQAHDGPVYSMVSTDRHLLSAGDGEVKAWLWAEMLKKGCKELWRRQPPYRTSLEVPEINALLLVPKENSLILAGGDCQLHTMDLETGTFTRVLRGHTDYIHCLALRERSPEVLSGGEDGAVRLWDLRTAKEVQTIEVYKHEECSRPHNGRWIGCLATDSDWMVCGGGPALTLWHLRSSTPTTIFPIRAPQKHVTFYQDLILSAGQGRCVNQWQLSGELKAQVPGSSPGLLSLSLNQQPAAPECKVLTAAGNSCRVDVFTNLGYRAFSLSEGHHHHHH", "soluble on expression in E. coli": "not soluble"}
{"sequence": "GHHHHHHAIAENLYFQSETSETDSTGNTQTCETRQTRSNSWTAWGIHAISTITDGAKQLYTKALGLDELEEKKLEDEEGVTHVEVDEKTKRDLWNQLSTLVGADVINMRLSLPVWLFEPTTALQRMCETLQFHQLLDMAATCEEPVERDALVAAFTVSAFAHTERVYKPFNPVLGETFEWTSRDGTTRVLCEQVSHHPPVSVSYTEGPGWVAQEVFSCNAYFLGNSVEIRNTGSRYVYLTSFDERYEWTLPVSAAQNLFVGGSFIDHYGELILRSSPRGSVTSLTFTKCGWFGRGRYAVNGDIVDADGYRVMELSGEWNRGLVGFRLDKSSGERVDAKSLWYAGEHKPAVKRDKYNFTNFTYELLEVPDNAESIIPPTDSRFRPDRRALEGNNLSLANLEKVRVENIQRERENQRQKTGTTYVPAWFYQDDNNEWHFGGKYWKETRNMSEDQKEQMKLW", "soluble on expression in E. coli": "not soluble"}
{"sequence": "MSSGVKASPHRFNRFEIKYLITEQDVPALREQLATRMSTDPLSPPGGYRVESLYFDSADLRCYTEKIEGLKFRRKLRIRTYGDGVLTPESTVSVEIKQRVNKVTQKRRLDLPFIYALALGDSTGAAVGEQVDVEKLLEISPENQHALIHEMASFAKNYRLRPIATTKYHREAFVGADAEESSRVTIDHGVSGRDRDFLLGQDLEDRPTVAQGLAVVEIKCDERVPFWLTDMTAQLEMSVIRMSKYCETIEAFHNRPASAFGAVDPIFLEHHHHHH", "soluble on expression in E. coli": "not soluble"}
